Data from publication PMC11312540 (bioRxiv, 2024).

Target: SH3 domain of Src (residues 83–141) with C-terminal FLAG-tag (chicken, UniProt P00523 83-141)
Assay: bimane fluorescence

- binding result: binds
B1: βarr1-MC-393 V70C labeled with monobromobimane (domain or fragment, rat, UniProt P29066 1-393, looked up)
chain: MGDKGTRVFKKASPNGKLTVYLGKRDFVDHIDLVDPVDGVVLVDPEYLKERRVYVTLTAAFRYGREDLDCLGLTFRKDLFVANVQSFPPAPEDKKPLTRLQERLIKKLGEHAYPFTFEIPPNLPSSVTLQPGPEDTGKAIGVDYEVKAFVAENLEEKIHKRNSVRLVIRKVQYAPERPGPQPTAETTRQFLMSDKPLHLEASLDKEIYYHGEPISVNVHVTNNTNKTVKKIKISVRQYADIVLFNTAQYKVPVAMEEADDTVAPSSTFSKVYTLTPFLANNREKRGLALDGKLKHEDTNLASSTLLREGANREILGIIVSYKVKVKLVVSRGGLLGDLASSDVAVELPFTLMHPKPKEEPPHREVPESETPVDTNLIELDTNDDDIVFEDFAR
modifications: monobromobimane (mBr) on C70
